{"source": "patent US20260125476A1", "about": "(INTERVET, published 2026)", "binders": {"B1": {"name": "Mouse-canine chimeric antibody 39A11 (antibody, V domains shown)", "VH": "EVKLVESGGGLVQPGGSLSLSCATSGFTFSDYYMSWVRQSPGKALEWMGFIRNKANGYTTEYSASLKGRFTISRDNSQSILYLQMNVLRAEDSATYYCVRFGLMYYFDYWGQGTTLTVSS", "VL": "ENVLIQSPAIMSASPGEKVTMTCRASSSVSSSYLHWYQQKSGASPKLWIFSTSNLASGVPARFSGSGSGTSYSLTINSVEAEDAATYYCQQYSGLPLTFGGGTKLEIKR", "notes": "Mouse variable regions fused to canine constant heavy chain and canine kappa; HEK 293, protein A; also called chimera of 39A11"}, "B2": {"name": "Mouse-canine chimeric antibody 12B3 (antibody, V domains shown)", "VH": "QIQLVQSGPELKKPGETVKISCKASGYTFTNYGMNWVKQAPGKGLKWMGWINTYTGEPTYADDFKGRFAFSLETSASTAYLQINNLKNEDMATYFCARRSIYYPYWGQGTTLTVSS", "VL": "DVLMTQTPLSLPVSLGDQASISCRSSQSIVYSNGNTYLEWYLQKPGQSPKLLIYKVSNRFSGVPDRFSGSGSGTDFTLKISRVEAEDLGVYYCFQGSHVPWTFGGGTKLEIKR", "notes": "expressed in HEK 293 cells, purified on protein A; also called chimera of 12B3"}, "B3": {"name": "Caninized c12B3L3H3 (antibody, V domains shown)", "VH": "EIQLVQSGGDLVKPGGSVRLSCKASGYTFTNYGMNWVKQAPGKGLQWMGWINTYTGEPTYADDFKGRFTFSLDNAKNTAYLQINSLRAEDTAVYFCARRSIYYPYWGQGTTLTVSS", "VL": "B2 VL with P12S, L15P, D17E, Q18P, K79R, E86D, L88A, I111L", "notes": "also called caninized 12B3 VL3/VH3"}, "B4": {"name": "Caninized c12B3L2H3 (antibody, V domains shown)", "VH": "B3 VH", "VL": "B2 VL with V2I, L3V, P12S, L15P, D17E, Q18P, L42Q, K79R, E86D, L88A", "notes": "also called caninized 12B3"}, "B5": {"name": "Caninized c39A11L3H3 (antibody, V domains shown)", "VH": "EVKLVESGGDLVKPGGSLRLSCATSGFTFSDYYMSWVRQAPGKALEWMGFIRNKANGYTTEYSASLKGRFTISRDNAKNMLYLQMNSLRAEDTAVYYCVRFGLMYYFDYWGQGTTLTVSS", "VL": "ENVLTQSPASLSLSPGEKVTITCRASSSVSSSYLHWYQQKPGQSPKLWIFSTSNLASGVPSRFSGSGSGTSYSFTISSLEPEDVAVYYCQQYSGLPLTFGGGTKLELKR", "notes": "also called caninized 39A11 VL3/VH3"}, "B6": {"name": "Caninized c39A11L2H3 (antibody, V domains shown)", "VH": "B5 VH", "VL": "B5 VL with P15Q, G16E, S44A, S71D", "notes": "written here as L2H3; also called caninized 39A11"}, "B7": {"name": "Mouse-canine chimeric antibody 22A11 (antibody, V domains shown)", "VH": "QVQLQQPGTELVKPGASVKLSCKASGYTFTSYWMHWVKQRPGQGLEWIGNINPSNGGTRFNEKFKNKATLTEDKSSSTAYMQLSSLTSEDSAVYYCARSNYGSGWAWFAYWGQGTLVTVSA", "VL": "DIQMNQSPSSLSASLGDTITITCHASQNINVWLSWYQQKPGNIPKLLIYKSSNLHTGVPSRFSGSGSGTGFTLTISSLQPEDIATYYCQQGQSYPWTFGGGTKLEIKR", "notes": "Mouse variable regions fused to canine constant heavy chain and canine kappa; HEK 293, protein A"}, "B8": {"name": "Mouse-canine chimeric antibody 27G12 (antibody, V domains shown)", "VH": "QIQLVQSGPELKKPGETVKISCKASGYTFTTYGVSWVKQAPGKGLRWMGWINTYSGMPTYVDDFKGRFAFSLETSASTAFLQINNLKNEDTAIYFCARRGISFDYWGQGTTLTVSS", "VL": "B2 VL with Q18H, R24K, S32I, N58K", "notes": "as for B7"}, "B9": {"name": "Mouse-canine chimeric antibody 45A9 (antibody, V domains shown)", "VH": "B2 VH with M91T, S100G, I101T, P104R, Y105P", "VL": "B2 VL with N33H, L51V", "notes": "as for B7"}, "B10": {"name": "Mouse-canine chimeric antibody 110E3 (antibody, V domains shown)", "VH": "B2 VH with F68V, Y80F, M91T, S100G, I101V, Y102R, Y103L, P104D", "VL": "B2 VL with S32I, N33S, N35S, N58S", "notes": "as for B7"}}, "note": "Changes are numbered by the printed parent chain.", "data": [{"biological_target": "T1, canine CTLA-4 (cCTLA-4) recombinant protein (canine, UniProt Q9XSI1 38-161, limits assumed)", "T1 construct": "also called canine Cytotoxic T-Lymphocyte-Associated protein 4; CD152", "T1 chain": "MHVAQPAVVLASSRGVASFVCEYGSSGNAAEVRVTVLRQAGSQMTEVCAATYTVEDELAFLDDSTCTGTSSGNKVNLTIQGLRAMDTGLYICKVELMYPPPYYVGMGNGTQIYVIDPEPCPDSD", "test": "ELISA on coated cCTLA-4, OD450/540 ('xCTLA4 ELISA', Example 7)", "units": {"EC50 (read off the curve)": "µg/mL"}, "values": [{"binder": "B1", "EC50 (read off the curve)": "~0.004"}, {"binder": "B2", "EC50 (read off the curve)": "~0.001"}, {"binder": "B3", "EC50 (read off the curve)": "~0.002"}, {"binder": "B4", "EC50 (read off the curve)": "~0.002"}, {"binder": "B5", "EC50 (read off the curve)": "~0.004"}, {"binder": "B6", "EC50 (read off the curve)": "~0.007"}]}, {"biological_target": "T1, canine CTLA-4 (cCTLA-4) recombinant …", "test": "ELISA: cCTLA-4 coated at 200 ng/well, three-fold antibody dilutions, HRP anti-canine IgG Fc, OD450/540 (Example 3)", "units": {"EC50 (read off the curve)": "µg/mL"}, "values": [{"binder": "B1", "EC50 (read off the curve)": "~0.009"}, {"binder": "B7", "EC50 (read off the curve)": "~0.0007"}, {"binder": "B8", "EC50 (read off the curve)": "~0.002"}, {"binder": "B2", "EC50 (read off the curve)": "~0.005"}, {"binder": "B9", "EC50 (read off the curve)": "~0.002"}, {"binder": "B10", "EC50 (read off the curve)": "~0.002"}]}, {"biological_target": "T2, canine CTLA-4 expressed on CHO-K1 cells (canine, UniProt Q9XSI1 38-223)", "T2 construct": "also called CHO-cCTLA-4; CHO-K1-cCTLA-4 cells", "T2 chain": "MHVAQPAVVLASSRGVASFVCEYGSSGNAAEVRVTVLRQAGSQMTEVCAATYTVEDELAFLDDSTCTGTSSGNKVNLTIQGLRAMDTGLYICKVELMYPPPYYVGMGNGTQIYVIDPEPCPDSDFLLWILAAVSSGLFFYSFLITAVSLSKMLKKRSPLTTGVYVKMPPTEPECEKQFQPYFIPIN", "test": "flow cytometry on CHO-K1 cells stably expressing cCTLA-4, labelled anti-canine IgG, FL4-H histogram (Example 5); antibody concentration not given", "values": [{"binder": "B8", "binding result": "binds"}]}, {"biological_target": "T2, canine CTLA-4 expressed on CHO-K1 cells", "test": "flow cytometry on CHO-K1 cells stably expressing cCTLA-4, labelled anti-canine IgG, FL4-H histogram (Example 5); antibody concentration not given", "remark": "another data set of the same source", "values": [{"binder": "B2", "binding result": "binds"}]}, {"biological_target": "T2, canine CTLA-4 expressed on CHO-K1 cells", "test": "flow cytometry on CHO-K1 cells stably expressing cCTLA-4, labelled anti-canine IgG, FL4-H histogram (Example 5); antibody concentration not given", "remark": "another data set of the same source", "values": [{"binder": "B10", "binding result": "binds"}]}, {"biological_target": "T2, canine CTLA-4 expressed on CHO-K1 cells", "test": "flow cytometry on CHO-K1 cells stably expressing cCTLA-4, labelled anti-canine IgG, FL4-H histogram (Example 5); antibody concentration not given", "remark": "another data set of the same source", "values": [{"binder": "B7", "binding result": "binds"}]}, {"biological_target": "T1, canine CTLA-4 (cCTLA-4) recombinant …", "test": "blocking ELISA: cCTLA-4 coated at 200 ng/well, antibody dilutions mixed with 100 ng/well biotinylated canine CD86 (the blocked ligand), streptavidin-HRP, OD450/540 (Example 4)", "units": {"IC50 (read off the curve)": "µg/mL"}, "experimental": "(§1) Coat 200 ng/well cCTLA-4 in an immunoplate and incubate the plate at 4° C. overnight. […] Wash the plate 3 times by PBS with 0.05% Tween 20 (PBST). […] Block the plate with 0.5% BSA in PBS for 45-60 min at room temperature. […] Wash the plate 3 times by PBST. […] Next mixed with the antibodies. […] Transferred the mixture into each column or row of the immunoplate, and incubated the plate for 45-60 min at room temperature. […] Washed the plate 3 times with PBST. […] Added 1:2000 diluted horseradish peroxidase conjugated streptavidin into each well of the plate, and incubated the plate for 45-60 min at room temperature. […] Washed the plate 3 times with PBST. […] Added the TMB Substrate into each well of the plate, and incubated the plate for 10 to 15 minutes at room temperature to allow for color development. […] Added 100 μL of 1.5 M phosphoric acid into each well to stop the reaction. […] Read the plate at 450 nm with 540 nm reference wavelength.", "values": [{"binder": "B1", "IC50 (read off the curve)": "~0.1"}, {"binder": "B7", "IC50 (read off the curve)": "~0.3"}, {"binder": "B8", "IC50 (read off the curve)": "~0.1"}, {"binder": "B2", "IC50 (read off the curve)": "~0.1"}, {"binder": "B9", "IC50 (read off the curve)": "~0.1"}, {"binder": "B10", "IC50 (read off the curve)": "~0.1"}]}, {"biological_target": "T1, canine CTLA-4 (cCTLA-4) recombinant …", "test": "blocking ELISA: cCTLA-4 coated at 200 ng/well, antibody dilutions mixed with 100 ng/well biotinylated canine CD80 (the blocked ligand), streptavidin-HRP, OD450/540 (Example 4)", "units": {"IC50 (read off the curve)": "µg/mL"}, "experimental": "as §1", "values": [{"binder": "B1", "IC50 (read off the curve)": "~0.2"}, {"binder": "B7", "IC50 (read off the curve)": "~0.2"}, {"binder": "B8", "IC50 (read off the curve)": "~0.2"}, {"binder": "B2", "IC50 (read off the curve)": "~0.1"}, {"binder": "B9", "IC50 (read off the curve)": "~0.2"}, {"binder": "B10", "IC50 (read off the curve)": "~0.2"}]}]}
